In patent US11912755B2, “Endostatin fragments and variants for use in treating fibrosis” (iBio, Inc., priority 2015, dated 2024):

Legend:
[1] = tested on: TGF-β-induced dermal fibrosis in mouse skin; assay: In vivo TGF-β-induced dermal fibrosis in mouse skin; settings: 10 μg/ml intradermal with TGF-β 10 ng/ml; one week
Procedure: In Vivo Mouse Experiments. CB57BL6/J male mice were purchased from The Jackson Laboratory (Bar Harbor, ME). Human rE (10 μg/ml) or Endostatin peptides (10 μg/ml) in combination with TGF-β (10 ng/ml), or TGF-β alone were injected intradermally on the back of mice in a total volume of 100 μl 1×PBS. Mice were injected in two different skin sites and sacrificed one week post-injection. Skin surrounding the injection site was harvested and fixed in 10% formalin prior to embedding in paraffin.
Measurement of Skin Dermal Thickness. Six μm sections of paraffin-embedded human and mouse skin tissues were stained with hematoxylin and eosin (H&E). In some experiments, sections were stained with Masson trichrome which identifies collagens. Images were taken on a Nikon Eclipse 800 microscope. The thickness of the dermis was measured in 6 random fields of each section using the image/J® software. Data are shown in arbitrary units.
E4, a peptide representing the carboxy terminus of human endostatin, can attenuate fibrosis triggered by multiple fibrogenic factors. The anti-fibrotic effects of E4 can be detected whether administered concomitantly with or following the fibrogenic trigger. The efficacy of E4 was confirmed in […] pre-clinical models of fibrosis: a) bleomycin-induced dermal fibrosis in vivo in mouse skin, b) TGF-β induced dermal fibrosis in mouse skin, and c) bleomycin-induced pulmonary fibrosis. E4 peptide or a control peptide (E1; representing the amino terminal region of endostatin) were administered at the same time as TGF-β or bleomycin or 3-4 days following TGF-β or bleomycin. Mice were sacrificed one and two weeks after TGF-β-initiation of dermal fibrosis, and two and three weeks after bleomycin-induced pulmonary fibrosis. Two different modes of administration of the E4 peptide were also tested. It was confirmed that intraperitoneal and intratracheal administration was effective. The amount of E4 that was administered was 10 μg/ml in a total volume of 100 μl for skin and IP injections and 50 μl for IT administration.
For these studies, fibrosis was assessed by measurement of dermal thickness on H&E skin sections (skin), assessment of collagen levels by Masson Trichrome staining (skin and lung), and measurement of collagen levels by Sircol assay (lung). Furthermore, to confirm the mechanism by which E4 exerts its anti-fibrotic effects, the production of extra-cellular matrix (ECM) components, the levels of enzymes that promote matrix stabilization and thus accumulation and levels of those that degrade ECM components, and levels of transcription factors downstream of the pro-fibrotic triggers were evaluated. Results were assessed using the unpaired t test and the 3-way ANOVA (for the ID1 data).

[2] = tested on: human primary lung fibroblasts; assay: Western blot of FN, Col1α1 and α-SMA in primary lung fibroblasts; assay type: cell-based; settings: normal human lung fibroblasts; TGF-β 24 h, then 5 μg/ml for 48 h
Procedure: Primary Fibroblast Culture. Human primary lung and skin fibroblasts were cultured. The explanted lungs of normal organ donors, patients with SSc or IPF, and clinically involved skin of SSc patients, a morphea patient and healthy donors were used for primary fibroblast culture. Approximately 2-cm pieces of peripheral lung and skin were minced and fibroblasts were cultured in Dulbecco's modified Eagle's medium (DMEM; Mediatech, Herndon, Va.) supplemented with 10% FBS, penicillin, streptomycin, and anti-mycotic agent, as previously described (Feghali et al., Arthritis Rheum 1999; 42:1451-7). All the cells were used between passages 3-6.
Western Blot Analysis. Cellular lysates were obtained from cultured fibroblasts as previously described (Pilewski et al., Am J Pathol 2005; 166:399-407). Briefly, 2.0×10^5 primary fibroblasts were cultured in 35-mm wells in 0.5% FBS-containing medium supplemented with 10 ng/ml of human recombinant TGF-β or PBS as vehicle control for 24 h, […] In some experiments, endostatin peptides were used without TGF-β stimulation. Cellular lysates were analyzed by Western blot. Signals were detected following incubation with horseradish peroxidase-conjugated secondary antibody and chemiluminescence (Perkin Elmer Life Sciences, Inc., Boston, Mass.). The intensity of individual bands with expected molecular sizes was semi-quantitatively analyzed using the image/J® software available at on the Internet (/rsb.info.nih.gov/ij/index.html), and normalized to individual GAPDH intensity.

[3] = Solubility of Ig Fc fusions to E3 in plant lysates; assay type: physicochemical; settings: plant lysate, non-denaturing (normal) grind buffer
Excerpt: For IgG Fc expression, clarified plant lysates were run on a Western blot (Genway chicken E3 antibody). Fusions included E3 (C67A) linked to either the N-terminus of the hinge+Fc domains of IgG2, IgG3, or IgG4, or to the C-terminus of the hinge +Fc domain of IgG1. […] The E3-IgG1 fusion expressed well. The non-reducing samples all appeared to form large structures, although perhaps not as large as the END-55 (iBioCFB03) BMW multimers (FIG. 24).
For IgA/M expression, clarified plant lysates were ground in either denaturing (total) or non-denaturing buffer (soluble) and run on a Western blot (Genway chicken E3 antibody). Fusions contained E3 (C67A) linked to the N-terminus of the hinge+Fc domains of IgA1, IgA2, or IgM. The IgA1 and IgA2 fusions were insoluble in normal grind buffer. The IgM fusion had very low expression. J-chain co-expression had no obvious effect.

[4] = tested on: bleomycin-induced pulmonary fibrosis; assay: Bleomycin mouse model of pulmonary fibrosis, plant-made E3 variants oral or IV; assay type: in vivo; settings: oral treatment
Excerpt: Peptides were expressed in plants using the IBIOLAUNCH™ gene expression platform. C57BL/6 mice were given bleomycin intratracheally in conjunction with END-55 (also referred to herein as E3-Fc (C67A) and CFB03) intravenous (IV) administration, or followed by IV administration of END-55 eight days after bleomycin. The mice were sacrificed at day 12 and lung samples were taken for both hematoxylin and eosin (H&E) staining and hydroxyproline assay.
Pulmonary fibrosis was induced in mice using bleomycin. Animals were treated orally with E3 variants or phosphate buffered saline (PBS). Lung histology was examined, showing that orally delivered E3 variants (E3-6His-KDEL (SEQ ID NO:19) and Expanded E3-6His-KDEL(SEQ ID NO:19)) prevented bleomycin-induced pulmonary fibrosis.
For the experiments shown in FIGS. 21 and 22, pulmonary fibrosis was again induced in mice using bleomycin. […] Hydroxyproline content was measured in the lung.
To evaluate tissue fibrosis/collagen deposition, a hydroxyproline quantification assay was performed. […] Aliquots were transferred to 96-well plates, and absorbance was measured at 570 nm. Collagen content was calculated by comparison with a standard curve generated with cis-4 hydroxy-L-proline (Sigma-Aldrich), using the conversion factor of 1 μg hydroxyproline corresponding to 6.94 μg. […]

## E2: synthetic peptide, amino acids 71-115 of SEQ ID NO: 2 (IVNLKDELLFPSWEALFSGSEGPLKPGARIFSFNGKDVLTHPTWP; listed as Homo sapiens)
[1]
  TGF-β-induced dermal fibrosis (dermal thickness): significantly reduced

## E1: synthetic peptide, amino acids 1-45 of SEQ ID NO: 2 (human endostatin) (HSHRDFQPVLHLVALNSPLSGGMRGIRGADFQCFQQARAVGLAGT; listed as Homo sapiens)
[2]
  FN and Col1α1 levels: no effect
[1]
  TGF-β-induced dermal fibrosis (dermal thickness): did not alter

## IgG1_Fc-E3_C67A: SEQ ID NO: 29, C-terminal fusion of E3 C67A to IgG1 Fc
[3]
  solubility: soluble

B1: Expanded E3-6His-KDEL: SEQ ID NO:17; E3 extended by 17 amino acids from Collagen XVIII, S→Y, C67A, ASK, 6X His KDEL (protein)
chain: MGKMASLFATFLVVLVSLSLASESSAQKSVWHGSDPNGRRLTESYCETWRTEAPSATGQAYSLLGGRLLGQSAASCHHAYIVLAIENSFMTASKHHHHHHKDEL
modifications: amino acid sequence including a secretory sequence, a portion of collagen XVIII, a portion of human endostatin having a C67A mutation, and a peptide tag
notes: E3 extended by 17 amino acids from Collagen XVIII, S→Y, C67A, ASK, 6X His KDEL
[4]
  bleomycin-induced pulmonary fibrosis, lung histology: prevented

B2: E3_C67A-Fc_IgA1: SEQ ID NO: 25 (protein)
chain: MGKMASLFATFLVVLVSLSLASESSASYCETWRTEAPSATGQASSLLGGRLLGQSAASCHHAYIVLAIENSFMTVPCPVPSTPPTPSPSTPPTPSPSCCHPRLSLHRPALEDLLLGSEANLTCTLTGLRDASGVTFTWTPSSGKSAVQGPPERDLCGCYSVSSVLPGCAEPWNHGKTFTCTAAYPESKTPLTATLSKSGNTFRPEVHLLPPPSEELALNELVTLTCLARGFSPKDVLVRWLQGSQELPREKYLTWASRQEPSQGTTTFAVTSILRVAAEDWKKGDTFSCMVGHEALPLAFTQKTIDRLAGKPTHVNVSVVMAEVDGTCY
modifications: E3_C67A-Fc_IgA1 fusion
[3]
  solubility: insoluble

B3: E3_C67A-Fc_IgA2: SEQ ID NO: 26 (protein)
chain: MGKMASLFATFLVVLVSLSLASESSASYCETWRTEAPSATGQASSLLGGRLLGQSAASCHHAYIVLAIENSFMTVPCPVPPPPPCCHPRLSLHRPALEDLLLGSEANLTCTLTGLRDASGATFTWTPSSGKSAVQGPPERDLCGCYSVSSVLPGCAQPWNHGETFTCTAAHPELKTPLTANITKSGNTFRPEVHLLPPPSEELALNELVTLTCLARGFSPKDVLVRWLQGSQELPREKYLTWASRQEPSQGTTTFAVTSILRVAAEDWKKGDTFSCMVGHEALPLAFTQKTIDRMAGKPTHVNVSVVMAEVDGTCY
modifications: E3_C67A-Fc_IgA2 fusion
[3]
  solubility: insoluble

B4: E3-6His-KDEL: SEQ ID NO:15; secretory leader peptide, E3, tagged with 6X His and KDEL sequence; plant-made (protein)
chain: MGKMASLFATFLVVLVSLSLASESSASYCETWRTEAPSATGQASSLLGGRLLGQSAASCHHAYIVLCIENSFMTHHHHHHKDEL
modifications: amino acid sequence including a secretory sequence, a portion of human endostatin, and a peptide tag
notes: plant-made
[4]
  bleomycin-induced pulmonary fibrosis, lung histology: prevented

B5: E3_C67A-Fc_IgG3: SEQ ID NO: 23 (protein)
chain: MGKMASLFATFLVVLVSLSLASESSASYCETWRTEAPSATGQASSLLGGRLLGQSAASCHHAYIVLAIENSFMTELKTPLGDTTHTCPRCPEPKSCDTPPPCPRCPEPKSCDTPPPCPRCPEPKSCDTPPPCPRCPAPELLGGPSVFLFPPKPKDTLMISRTPEVTCVVVDVSHEDPEVQFKWYVDGVEVHNAKTKPREEQYNSTFRVVSVLTVLHQDWLNGKEYKCKVSNKALPAPIEKTISKTKGQPREPQVYTLPPSREEMTKNQVSLTCLVKGFYPSDIAVEWESSGQPENNYNTTPPMLDSDGSFFLYSKLTVDKSRWQQGNIFSCSVMHEALHNRFTQKSLSLSPGK
modifications: E3_C67A-Fc_IgG3 fusion
[3]
  solubility: soluble
